Legend:
[1] = fluorescence microscopy, NuMA volume at spindle poles; settings: control: DMSO
[2] = Galectin-3 over NuMA fluorescence intensity; settings: glycan lost; control: wt NuMA-GFP in NuMA-depleted HeLa
[3] = confocal microscopy of metaphase cells; settings: glycan lost; control: wt NuMA-GFP in NuMA-depleted HeLa

Substance: NuMA (Nuclear Mitotic Apparatus protein): Ac-5SGlcNAc
- localisation_or_trafficking ([1]; glycan lost): changes

Substance: NuMA (Nuclear Mitotic Apparatus protein): GalNAcα-O-benzyl
- localisation_or_trafficking ([1]; glycan lost): no change

Substance: NuMA (Nuclear Mitotic Apparatus protein): S1844A
- other: Galectin-3 recruitment to spindle poles [2]: decreases
- localisation_or_trafficking [3]: changes

Substance: NuMA (Nuclear Mitotic Apparatus protein): swainsonine
- localisation_or_trafficking ([1]; glycan changed form): no change
